In the supplement of paper PMC9112550, “Optimization of the antimicrobial peptide Bac7 by deep mutational scanning” (BMC Biology, 2022):

Tested on: Escherichia coli TOP10
Assay: shrunken log2 fold change of peptide-encoding DNA abundance (4.5 h post-induction vs induction); higher = less antimicrobial activity (less host growth inhibition)
Conditions: time post-induction: 4.5 h; library: site-saturation at positions 5, 18, 19, 20
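Also: peptides expressed intracellularly from a pBAD plasmid library in pooled LB shake-flask culture, induced with 0.3% L-arabinose, DNA abundance read by NGS, three biological replicates, DESeq2 with apeglm shrinkage.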

RRIRWRPPRLPRPRPRPHSAPRP
shrunken log2 fold change: -0.0726

RRIRERPPRLPRPRPRPKYNPRP
shrunken log2 fold change: -0.7

RRIRCRPPRLPRPRPRPVTDPRP
shrunken log2 fold change: 0.133

RRIRMRPPRLPRPRPRPYQAPRP
shrunken log2 fold change: 2.21

RRIRCRPPRLPRPRPRPFFQPRP
shrunken log2 fold change: -0.152

RRIRERPPRLPRPRPRPSCSPRP
shrunken log2 fold change: -0.412

RRIRDRPPRLPRPRPRPPTIPRP
shrunken log2 fold change: 0.0394

RRIRSRPPRLPRPRPRPTMCPRP
shrunken log2 fold change: -0.0421

RRIRIRPPRLPRPRPRPPPKPRP
shrunken log2 fold change: 0.46

RRIRYRPPRLPRPRPRPFEVPRP
shrunken log2 fold change: -0.0115

RRIRSRPPRLPRPRPRPGQRPRP
shrunken log2 fold change: 0.0367

RRIRRRPPRLPRPRPRPQEMPRP
shrunken log2 fold change: 0.51

RRIRNRPPRLPRPRPRPELPPRP
shrunken log2 fold change: -0.098

RRIRMRPPRLPRPRPRPMAAPRP
shrunken log2 fold change: 0.117

RRIRARPPRLPRPRPRPPNAPRP
shrunken log2 fold change: 0.825

RRIRDRPPRLPRPRPRPRVHPRP
shrunken log2 fold change: -0.0969

RRIRVRPPRLPRPRPRPSINPRP
shrunken log2 fold change: -0.243

RRIRGRPPRLPRPRPRPTNFPRP
shrunken log2 fold change: -0.0941

RRIRDRPPRLPRPRPRPSYYPRP
shrunken log2 fold change: -0.0757

RRIRKRPPRLPRPRPRPYAEPRP
shrunken log2 fold change: -0.0528

RRIRHRPPRLPRPRPRPIYAPRP
shrunken log2 fold change: 0.0179

RRIRTRPPRLPRPRPRPKHSPRP
shrunken log2 fold change: -0.416

RRIRERPPRLPRPRPRPLGKPRP
shrunken log2 fold change: 0.189

RRIRCRPPRLPRPRPRPDAVPRP
shrunken log2 fold change: 0.0365

RRIRSRPPRLPRPRPRPCWSPRP
shrunken log2 fold change: 0.0886

RRIRFRPPRLPRPRPRPACHPRP
shrunken log2 fold change: -0.0466

RRIRIRPPRLPRPRPRPTHPPRP
shrunken log2 fold change: 0.225

RRIRGRPPRLPRPRPRPIDYPRP
shrunken log2 fold change: -0.0822

RRIRGRPPRLPRPRPRPWWKPRP
shrunken log2 fold change: 0.0639

RRIRTRPPRLPRPRPRPDWIPRP
shrunken log2 fold change: -0.0498

RRIRIRPPRLPRPRPRPYELPRP
shrunken log2 fold change: -0.0687

RRIRWRPPRLPRPRPRPPCDPRP
shrunken log2 fold change: 0.255

RRIRYRPPRLPRPRPRPDDHPRP
shrunken log2 fold change: -0.264

RRIRIRPPRLPRPRPRPITGPRP
shrunken log2 fold change: -0.0492

RRIRTRPPRLPRPRPRPCCEPRP
shrunken log2 fold change: -0.105

RRIRSRPPRLPRPRPRPDFYPRP
shrunken log2 fold change: -0.0521

RRIRTRPPRLPRPRPRPQLVPRP
shrunken log2 fold change: 0.0727

RRIRRRPPRLPRPRPRPPPMPRP
shrunken log2 fold change: 0.959

RRIRERPPRLPRPRPRPMEQPRP
shrunken log2 fold change: -0.136

RRIRSRPPRLPRPRPRPHFDPRP
shrunken log2 fold change: 0.0286

RRIRSRPPRLPRPRPRPINWPRP
shrunken log2 fold change: -0.161

RRIRHRPPRLPRPRPRPFRDPRP
shrunken log2 fold change: 0.0888

RRIRFRPPRLPRPRPRPIMVPRP
shrunken log2 fold change: -0.104

RRIRWRPPRLPRPRPRPCDHPRP
shrunken log2 fold change: -0.00122

RRIRCRPPRLPRPRPRPEHQPRP
shrunken log2 fold change: 0.0614

RRIRKRPPRLPRPRPRPIPMPRP
shrunken log2 fold change: 0.0472

RRIRNRPPRLPRPRPRPRTCPRP
shrunken log2 fold change: -0.257

RRIRKRPPRLPRPRPRPDHLPRP
shrunken log2 fold change: -0.0896

RRIRSRPPRLPRPRPRPEANPRP
shrunken log2 fold change: 0.542

RRIRCRPPRLPRPRPRPPWVPRP
shrunken log2 fold change: 0.204

RRIRIRPPRLPRPRPRPHRGPRP
shrunken log2 fold change: -0.00841

RRIRYRPPRLPRPRPRPLAAPRP
shrunken log2 fold change: 0.153

RRIRGRPPRLPRPRPRPHHTPRP
shrunken log2 fold change: -0.12

RRIRDRPPRLPRPRPRPCDRPRP
shrunken log2 fold change: -0.0944

RRIRWRPPRLPRPRPRPLGAPRP
shrunken log2 fold change: 0.483

RRIRMRPPRLPRPRPRPTKCPRP
shrunken log2 fold change: 0.331

RRIRPRPPRLPRPRPRPMTQPRP
shrunken log2 fold change: 0.272

RRIRERPPRLPRPRPRPIMRPRP
shrunken log2 fold change: -0.102

RRIRCRPPRLPRPRPRPCEIPRP
shrunken log2 fold change: 0.0656

RRIRRRPPRLPRPRPRPIVMPRP
shrunken log2 fold change: -0.0167

RRIRTRPPRLPRPRPRPRKSPRP
shrunken log2 fold change: -0.0508

RRIRLRPPRLPRPRPRPYQPPRP
shrunken log2 fold change: -0.582

RRIRSRPPRLPRPRPRPRTKPRP
shrunken log2 fold change: 0.407

RRIRMRPPRLPRPRPRPNENPRP
shrunken log2 fold change: 0.314

RRIRQRPPRLPRPRPRPLDQPRP
shrunken log2 fold change: -0.635

RRIRGRPPRLPRPRPRPKRLPRP
shrunken log2 fold change: 0.217

RRIRSRPPRLPRPRPRPAVNPRP
shrunken log2 fold change: 0.0811

RRIRRRPPRLPRPRPRPPDKPRP
shrunken log2 fold change: 0.303

RRIRKRPPRLPRPRPRPGFHPRP
shrunken log2 fold change: 0.206

RRIRPRPPRLPRPRPRPSYGPRP
shrunken log2 fold change: -0.2

RRIRHRPPRLPRPRPRPLCEPRP
shrunken log2 fold change: 0.197

RRIRERPPRLPRPRPRPKRSPRP
shrunken log2 fold change: -0.0414

RRIRPRPPRLPRPRPRPKFHPRP
shrunken log2 fold change: -0.143

RRIRSRPPRLPRPRPRPIFKPRP
shrunken log2 fold change: -0.186

RRIRNRPPRLPRPRPRPIFIPRP
shrunken log2 fold change: -0.44

RRIRSRPPRLPRPRPRPDMSPRP
shrunken log2 fold change: -0.0189

RRIRVRPPRLPRPRPRPSESPRP
shrunken log2 fold change: 0.0556

RRIRYRPPRLPRPRPRPRIYPRP
shrunken log2 fold change: -0.569

RRIRFRPPRLPRPRPRPRMEPRP
shrunken log2 fold change: -0.00899

RRIRKRPPRLPRPRPRPFVAPRP
shrunken log2 fold change: 0.115

RRIRRRPPRLPRPRPRPEDGPRP
shrunken log2 fold change: 0.445

RRIRCRPPRLPRPRPRPNQPPRP
shrunken log2 fold change: -0.0425

RRIRVRPPRLPRPRPRPMDHPRP
shrunken log2 fold change: -0.426

RRIRHRPPRLPRPRPRPKIFPRP
shrunken log2 fold change: -0.0798

RRIRARPPRLPRPRPRPGRSPRP
shrunken log2 fold change: 0.206

RRIRARPPRLPRPRPRPEFNPRP
shrunken log2 fold change: 1.05

RRIRKRPPRLPRPRPRPVRAPRP
shrunken log2 fold change: 1.27

RRIRKRPPRLPRPRPRPNYWPRP
shrunken log2 fold change: 0.157

RRIRSRPPRLPRPRPRPRWTPRP
shrunken log2 fold change: 0.0635

RRIRTRPPRLPRPRPRPHCTPRP
shrunken log2 fold change: -0.298

RRIRDRPPRLPRPRPRPTDYPRP
shrunken log2 fold change: -0.0921

RRIRDRPPRLPRPRPRPCFNPRP
shrunken log2 fold change: -0.134

RRIRCRPPRLPRPRPRPVWIPRP
shrunken log2 fold change: -0.441

RRIRKRPPRLPRPRPRPWWPPRP
shrunken log2 fold change: 0.0304

RRIRARPPRLPRPRPRPKEGPRP
shrunken log2 fold change: -0.00115

RRIRKRPPRLPRPRPRPFPEPRP
shrunken log2 fold change: 0.273

RRIRPRPPRLPRPRPRPQYMPRP
shrunken log2 fold change: -0.506

RRIRHRPPRLPRPRPRPSGMPRP
shrunken log2 fold change: 0.0613

RRIRWRPPRLPRPRPRPYAKPRP
shrunken log2 fold change: -0.41

RRIRWRPPRLPRPRPRPREWPRP
shrunken log2 fold change: 1.22

RRIRSRPPRLPRPRPRPLLQPRP
shrunken log2 fold change: -0.227

RRIRMRPPRLPRPRPRPYFPPRP
shrunken log2 fold change: -0.213

RRIRMRPPRLPRPRPRPCMFPRP
shrunken log2 fold change: -0.038

RRIRRRPPRLPRPRPRPHVDPRP
shrunken log2 fold change: 0.027

RRIRRRPPRLPRPRPRPRTPPRP
shrunken log2 fold change: 0.616

RRIRLRPPRLPRPRPRPVRAPRP
shrunken log2 fold change: 0.687

RRIRKRPPRLPRPRPRPQLLPRP
shrunken log2 fold change: 0.261

RRIRCRPPRLPRPRPRPHWIPRP
shrunken log2 fold change: -0.761

RRIRFRPPRLPRPRPRPFADPRP
shrunken log2 fold change: -0.0172

RRIRGRPPRLPRPRPRPSAEPRP
shrunken log2 fold change: 2.33

RRIRWRPPRLPRPRPRPNQNPRP
shrunken log2 fold change: -0.221

RRIRERPPRLPRPRPRPWQPPRP
shrunken log2 fold change: 0.0778

RRIRKRPPRLPRPRPRPDQVPRP
shrunken log2 fold change: 0.0449

RRIRARPPRLPRPRPRPQRCPRP
shrunken log2 fold change: 0.256

RRIRPRPPRLPRPRPRPCPMPRP
shrunken log2 fold change: -0.156

RRIRARPPRLPRPRPRPGDSPRP
shrunken log2 fold change: 0.339

RRIRWRPPRLPRPRPRPVNSPRP
shrunken log2 fold change: 0.0541

RRIRYRPPRLPRPRPRPINIPRP
shrunken log2 fold change: -1.21

RRIRWRPPRLPRPRPRPQMAPRP
shrunken log2 fold change: 0.242

RRIRTRPPRLPRPRPRPPFSPRP
shrunken log2 fold change: 0.0411

RRIRARPPRLPRPRPRPQDIPRP
shrunken log2 fold change: -0.15

RRIRSRPPRLPRPRPRPLWKPRP
shrunken log2 fold change: 0.197

RRIRLRPPRLPRPRPRPVWVPRP
shrunken log2 fold change: -0.0407

RRIRARPPRLPRPRPRPNVTPRP
shrunken log2 fold change: 0.17

RRIRTRPPRLPRPRPRPSRAPRP
shrunken log2 fold change: 0.271

RRIRLRPPRLPRPRPRPWYMPRP
shrunken log2 fold change: -0.0481

RRIRLRPPRLPRPRPRPKNGPRP
shrunken log2 fold change: -0.203

RRIRPRPPRLPRPRPRPDKGPRP
shrunken log2 fold change: 0.118

RRIRCRPPRLPRPRPRPSYLPRP
shrunken log2 fold change: -1

RRIRLRPPRLPRPRPRPFGQPRP
shrunken log2 fold change: -0.11

RRIRTRPPRLPRPRPRPQPSPRP
shrunken log2 fold change: -0.095

RRIRWRPPRLPRPRPRPGAHPRP
shrunken log2 fold change: 0.32

RRIRQRPPRLPRPRPRPVEGPRP
shrunken log2 fold change: 0.294

RRIRFRPPRLPRPRPRPEGMPRP
shrunken log2 fold change: -0.0976

RRIRTRPPRLPRPRPRPQGNPRP
shrunken log2 fold change: -0.164

RRIRLRPPRLPRPRPRPRCSPRP
shrunken log2 fold change: 0.0191

RRIRRRPPRLPRPRPRPFEKPRP
shrunken log2 fold change: -0.0125

RRIRWRPPRLPRPRPRPIPSPRP
shrunken log2 fold change: 0.0317

RRIRARPPRLPRPRPRPCNNPRP
shrunken log2 fold change: -0.352

RRIRPRPPRLPRPRPRPQVNPRP
shrunken log2 fold change: -0.279

RRIRNRPPRLPRPRPRPIIKPRP
shrunken log2 fold change: -0.463

RRIRARPPRLPRPRPRPYWTPRP
shrunken log2 fold change: -0.16

RRIRRRPPRLPRPRPRPDMIPRP
shrunken log2 fold change: -0.0332

RRIRQRPPRLPRPRPRPTWCPRP
shrunken log2 fold change: 0.171

RRIRLRPPRLPRPRPRPDRSPRP
shrunken log2 fold change: -0.0286

RRIRWRPPRLPRPRPRPEHTPRP
shrunken log2 fold change: 0.489

RRIRWRPPRLPRPRPRPYTTPRP
shrunken log2 fold change: -0.537

RRIRNRPPRLPRPRPRPQWGPRP
shrunken log2 fold change: -0.0138

RRIRGRPPRLPRPRPRPSTFPRP
shrunken log2 fold change: 0.112

RRIRIRPPRLPRPRPRPVIGPRP
shrunken log2 fold change: -0.727
